In the supplement of paper PMC12764529:
± gives the half width of the 95% confidence interval.

Assay: folding stability dG unfold from chymotrypsin proteolysis; higher = more stable
Outline: (§1)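 Unfolding free energy was derived, per protease or combined, against a sequence-predicted unfolded-state K50 and a shared folded-state K50, starting from K50 inferred by Bayesian fitting of sequencing counts. Digestion with trypsin and chymotrypsin was carried out on designed mini-proteins under 80 residues without cysteine in a PA-tagged cDNA display construct. Only designs with AlphaFold2 dimer inter-PAE above 15 were kept.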

Sequence | folding stability dG unfold [kcal/mol]
SAGGSAGGSAGGKIEIKTFPDGYVLAKIEFPDEDKALVILAKVKPNPGKVLEAIIRPADSAGGSAGGSAGGS [r10_613_TrMRF] | 1.51 ± 0.062
SAGSMEPGEVLNVTMTFYDTSGNKLGTVNFTFTDEEEAKKKIEELAKEIKEKLNKNVKVTVEINKSPSLSAG [r5_232_JUSTAS] | 4.59 ± 0.23
SAGGSAGGSAGGSKTVLLKVNGKLVLKELKVEVELEAEPETTTTTTTTTTLKPGETKTLSAGGSAGGSAGGS [r4_215_TrROS_Hall] | 0.397 ± 0.11
SAGGSAGGSAGTIRIKMKDGKPMEFPLKGLPKEDLDDPEFLDWIKDWARDSGMKIDDIEISAGGSAGGSAGG [r11_467_TrROS] | 1.09 ± 0.072
PNMKMEWIQIPPGDLNDPVKIEAPLPPGTQIMIWVHDNGNGEWRPIFTVNNDEITIKNLPDADHVWVWVIKS [r1_224_TrROS] | 2.71 ± 0.1
SAGGSAGGSAGMSALVLKVKIYYPKELFSPEEIEKIKSARIEVEPFLVEVKIDPETGELGSAGGSAGGSAGG [r17_310_TrMRF] | 2.744 ± 0.021
SSVPADAAPVTVTETVTVTLPVDTATGGVPEERVAAAREAAAARGFTEFTVTTDPAAGTVTVTVTRTSRVSA [r9_201_JUSTAS] | 1.27 ± 0.035
SAGGSKTVTVTVRIKVTNEDGEELTVTARLTYNEETGEVTVEIEMSPEALERLRELFPDVKIEIYPSAGGSA [r2_409_TrROS_Hall] | 3.09 ± 0.13
SAGGMELVSRKRLSTSADGSVTYLYEYYDPKTGKRYTLVVTVKTPDGKIKPKVFTADSEEEAKKIALESAGG [r13_26_JUSTAS] | 1.56 ± 0.16
SAFNIEIEEVDPNEIYIKIDATPEQLEEIAEDIMKNFPGYKVKWEWDDEQGKIWFRIRPVPPPPPEDQNSAG [r14_600_TrROS] | 1.97 ± 0.13
SAGGSAMTLRLELRVRLQVFNEDGELLGERELDIEIELEGEPLEVPPPPEIDPEEAARLLGLDPDGSAGGSA [r15_572_TrMRF] | 2.84 ± 0.039
SAGGAMPVELVETLEEIPGKGIVLRKFRDPLSDKWFLATVPVETLPNGEKKYLIELNIDGSGMTLELGSAGG [r13_993_JUSTAS] | 0.11 ± 0.22
SEPRYHVEIRLPVLLVVPPELLEPDPERDSYRLPEDDLPVHPDAVIPREVTFSGPMTAEEVVRRTLALLSSA [r9_165_TrMRF] | 1.38 ± 0.13
SAGGSAGGSAGGMIRIENPGNGEPRPIKPNDLEDILDNFPGPMRIETGGGEKEVPAKDISAGGSAGGSAGGS [r10_839_TrROS] | 0.052 ± 0.079
SAGGMTLTLTGPEEVVDDLLERLREEFPDVTVEPTAVSYDPATGLVTVPVRVVTEDPAVVAAIRAALSSAGG [r13_539_JUSTAS] | 3.562 ± 0.03
SAGGSAGGSAGMDIDILTETEVTRYPDGTVVTTTTTRDSSGEVLSTTTTTTTVTPATPAASAGGSAGGSAGG [r11_452_JUSTAS] | 2.6 ± 0.057

Assay: folding stability dG unfold (combined trypsin and chymotrypsin); higher = more stable
Outline: as §1

Sequence | folding stability dG unfold [kcal/mol]
SAGGSAGGSAGGPDAAPSAVREYVLVTVPVYAENGTPLGPVTVVAPASVSLAAVADAVFNSAGGSAGGSAGG [r7_109_TrMRF] | 0.399 ± 0.11
KIVILEPGEEAELPGVKVIPVDGLRIREVEVNGKKILVIEMSEEEIENGNEEELEKLRELAEELGADEVILS [r1_438_TrROS_Hall] | 1.14 ± 0.26
SAGTIKELLEKLPGFSVEVDPDDGTVWVMFRMPDHYVMIEIPIDKEDGNIKGIRIHRHDPNGEPKPIPLSAG [r5_367_TrROS] | 1.44 ± 0.12
SAGGSAGGIIVWFPFDDIDELIKNGNIDEVEISRDPNDWFRFTPEIRPPPPPPPEQLAKNNKKNSAGGSAGG [r6_279_TrROS] | 0.735 ± 0.22
SAGGSAGGSAGGIWITMRPDNPDEFIDALRKKGKIRIVEVEPKNGNVIMRVTLDGQPLTSAGGSAGGSAGGS [r10_695_TrROS] | 0.368 ± 0.088
SAGGSAGGSKPNEIKIKKIKIEVKIKKKKVDKEKGEEIYEIEEVKIEIEEITLSKEELEKLLKSAGGSAGGS [r12_723_TrROS_Hall] | 1.94 ± 0.12
SVPVAPDKTYEIENIEEGNYLIKGLTLTPLPDGSVKIDKDIEPIEIPPKPPPLKYDPVKGGFIKPNDPLLSA [r9_603_JUSTAS] | 0.434 ± 0.14
SAGGSAGGSAGMTKIVIQYEVPPDKPPPDLEEIKKSLPGAENIEITREELPNGTWVYTVESAGGSAGGSAGG [r17_205_JUSTAS] | 0.593 ± 0.26
SAGGSAGGSAGVKSVGPIIYPNGEVFGDVKAEEETLPNGKKKLKIYATFSDGSKYEFTLDSAGGSAGGSAGG [r11_810_TrMRF] | 0.325 ± 0.26
SAGMGIVEALRRELEAAGLDVRVSATVEPLPDLGYVLITVHVEVRNENGEWVPLGPLTILLPVEEAERLSAG [r5_413_TrMRF] | 2.55 ± 0.13
SAGGSMKIKVEYEELPNGKMVIRIDIPPEENNMTPEQVETIAKEIAEEFPNVKVETTPGSIWIRVPSAGGSA [r2_256_TrROS] | 1.24 ± 0.16
SAGGSASVEVSVEEKDGTLTVTVTVEVDGKLVTVTVTLTLPPPPPLSAEELEKAREAEKEGKTVEVSAGGSA [r15_631_TrROS_Hall] | 2.49 ± 0.11
SAGNITIEWEEYEDYRVIKITIPYKSPQQAPEEIESIIRKLGFPPNMKIEDIEVDPEEGHVEITIYIKSAGG [r19_186_TrROS] | 4.47 ± 0.085
SAMRMISFPIESPEELEDELEEKFGVEVETFPDGMRMIKFRRNNEPVIIMIPPNNGHITIIPPEDMDKMSAG [r14_402_TrROS] | 1.01 ± 0.15
SAGGPVIEVESLEELKKALELLKEGKEVVIRVRVRRTETLPDGRKRVEEREVVYRATVEDGKLTIEPLSAGG [r13_835_TrROS_Hall] | 3.56 ± 0.12
SAGGSAGGSAGGKIEIKTFPDGYVLAKIEFPDEDKALVILAKVKPNPGKVLEAIIRPADSAGGSAGGSAGGS [r10_613_TrMRF] | 1.38 ± 0.097

Sequence | folding stability dG unfold [kcal/mol]
SAGSMEPGEVLNVTMTFYDTSGNKLGTVNFTFTDEEEAKKKIEELAKEIKEKLNKNVKVTVEINKSPSLSAG [r5_232_JUSTAS] | 4.76 ± 0.78
SAGGSAGGSAGGSKTVLLKVNGKLVLKELKVEVELEAEPETTTTTTTTTTLKPGETKTLSAGGSAGGSAGGS [r4_215_TrROS_Hall] | 0.109 ± 0.096
SAGGSAGGSAGTIRIKMKDGKPMEFPLKGLPKEDLDDPEFLDWIKDWARDSGMKIDDIEISAGGSAGGSAGG [r11_467_TrROS] | 0.608 ± 0.14
PNMKMEWIQIPPGDLNDPVKIEAPLPPGTQIMIWVHDNGNGEWRPIFTVNNDEITIKNLPDADHVWVWVIKS [r1_224_TrROS] | 2.47 ± 0.28
SAGGSAGGSAGMSALVLKVKIYYPKELFSPEEIEKIKSARIEVEPFLVEVKIDPETGELGSAGGSAGGSAGG [r17_310_TrMRF] | 2.38 ± 0.061
SSVPADAAPVTVTETVTVTLPVDTATGGVPEERVAAAREAAAARGFTEFTVTTDPAAGTVTVTVTRTSRVSA [r9_201_JUSTAS] | 1.11 ± 0.054
SAGGSKTVTVTVRIKVTNEDGEELTVTARLTYNEETGEVTVEIEMSPEALERLRELFPDVKIEIYPSAGGSA [r2_409_TrROS_Hall] | 3.9 ± 0.32
SAGGMELVSRKRLSTSADGSVTYLYEYYDPKTGKRYTLVVTVKTPDGKIKPKVFTADSEEEAKKIALESAGG [r13_26_JUSTAS] | 1.34 ± 0.11
SAFNIEIEEVDPNEIYIKIDATPEQLEEIAEDIMKNFPGYKVKWEWDDEQGKIWFRIRPVPPPPPEDQNSAG [r14_600_TrROS] | 1.96 ± 0.29
SAGGSAMTLRLELRVRLQVFNEDGELLGERELDIEIELEGEPLEVPPPPEIDPEEAARLLGLDPDGSAGGSA [r15_572_TrMRF] | 2.37 ± 0.25
SAGGAMPVELVETLEEIPGKGIVLRKFRDPLSDKWFLATVPVETLPNGEKKYLIELNIDGSGMTLELGSAGG [r13_993_JUSTAS] | 0.173 ± 0.17
SEPRYHVEIRLPVLLVVPPELLEPDPERDSYRLPEDDLPVHPDAVIPREVTFSGPMTAEEVVRRTLALLSSA [r9_165_TrMRF] | 1.04 ± 0.085
SAGGSAGGSAGGMIRIENPGNGEPRPIKPNDLEDILDNFPGPMRIETGGGEKEVPAKDISAGGSAGGSAGGS [r10_839_TrROS] | -0.0618 ± 0.21
SAGGMTLTLTGPEEVVDDLLERLREEFPDVTVEPTAVSYDPATGLVTVPVRVVTEDPAVVAAIRAALSSAGG [r13_539_JUSTAS] | 3.79 ± 0.065
SAGGSAGGSAGMDIDILTETEVTRYPDGTVVTTTTTRDSSGEVLSTTTTTTTVTPATPAASAGGSAGGSAGG [r11_452_JUSTAS] | 2.47 ± 0.069
